According to the nanobody polyreactivity screen of Harvey et al. (2022):

Assay: yeast display, Sf9 membrane polyspecificity reagent, FACS + sequencing; frameworks hold sequencing errors
Summary of the method: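 In a synthetic yeast display library (Saccharomyces cerevisiae BJ5465), nanobody expression was induced with galactose for 36–48 hours. FACS gates were set low and high (top ~1%) using anti-HA fluorescence for expression and streptavidin fluorescence for binding of the Sf9 membrane reagent. Each polyreactivity label is drawn from the gate of origin.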

Sequence | polyreactivity (PSR sort gate)
QVQLVESGGGLVQAGGSLRLSCAASGRTFPIYAMGWYRQAPGKERELVAAITRGGRTNYADSVKGRFTISRDNAKNTVYLQMNSLKTEDTAVYYCAARSYGTYLYAEYDYWGQGTQVTVSS | high polyreactivity
QVQLVESGGGLVQAGGSLRLSCAASGRTFPKYAMGWYRQAPGKERELVAAITWRASRTYYADSVKGRFTISRDYAKITVYLQMNSLKPEDTAVYYCAAKGVGQAPKRDYWGQGTQVNVSS | high polyreactivity
QVQLVESGGGLVQAGGSLRLSCAASGRTFPNNAMGWYRQAPGKERELVAAISSGSSTDYADSVKGRFTISRDNAKNTVYLQMNSLKPEDTAVYYCNAGDYTYPGSPWPGYAYDYWGQGTQVTVSS | low polyreactivity
QVQLVESGGGLVQAGGSLRLSCAASGRTFPRYAMGWYRQAPGKEMELVAAISVRAGITYYADSVKGRFTISRDNAKNTVYLQMNSLKPEDTAVYYCAKDHWTTSYDEGDYWGQGTQVTVSS | low polyreactivity
QVQLVESGGGLVQAGGSLRLSCAASGRTFPRYGMGWYRQAPGKERELVATIRTGGRTNYADSVKGRFTISRDNAKNTVYLQMNSLKPEDTAVYYCATDSSKHPYSPTLLKFDYWGQGTQVTVSS | low polyreactivity
QVQLVESGGGLVQAGGSLRLSCAASGRTFPRYVMGWYRPAPGKERELVASITSSGGSTYYADSVKGRLTISRDNAKNTVYLQMNSLKPEDTAVYYCAAYARPNSGPYAYRLDYWGQGTQVTVSS | high polyreactivity
QVQLVESGGGLVQAGGSLRLSCAASGRTFPRYVMGWYRQAPGKERELVAAITSSGGSTYYADSVKGRFTISRDNAKNTVYLQMNSLKPEDTAVYYCAAYARPYSGPYAYRLDYWGQGTQVTVSS | high polyreactivity
QVQLVESGGGLVQAGGSLRLSCAASGRTFPSNVMGRYIQAHGKERELVAGITWRGGSTYYADSVKGRFTISRDNAKYTVYLQINSLKPEDTAVYYCAVRTQYRRYEYWGHGTQVTVSS | high polyreactivity
QVQLVESGGGLVQAGGSLRLSCAASGRTFPSYAMGWYRQAPGKERELVAAITRGGSTNYADSVKGRFTISRDNAKNTVYLQMNSLKPEDTAVYYCAAARWRWQLARDDYWGEGTQVTVSS | high polyreactivity
QVQLVESGGGLVQAGGSLRLSCAASGRTFPSYAMGWYRQAPGKERELVAGIRWGAGRTYYADSVKGRFTISRDNAKNTVYLQMNSLKPEVTAVYYCAADPWSGSDYWGQGTQVTVSS | low polyreactivity
QVQLVESGGGLVQAGGSLRLSCAASGRTFPSYAMGWYRQAPGKERELVAVIRGGGSTKYADSVKGRFTISRDNAKNTVYLQMNSLKPEDTAVYYCATRGYPKFNYIYYYWGQGTQVTVSS | high polyreactivity
QVQLVESGGGLVQAGGSLRLSCAASGRTFPSYTMGWYRQAPGKERELVAPNDGGGDTYYADSVKGRFTISRDNAKNSVYLQMKSLKPEDTAVYYCRDWYPSYWYYYYAEYDYWGQGTQVTVSS | high polyreactivity
QVQLVESGGGLVQAGGSLRLSCAASGRTFPVNAMGWYRQAPAKQSELVATISWSGGSTYYADSVKGRFTISRDNAKNTVYLQMNSLKPEDTAVYYCAALGRHYRYDYWGQGTQVTVSS | low polyreactivity
QVQLVESGGGLVQAGGSLRLSCAASGRTFPVYAMGWYRQAPGKERELVAAIRGRSVRTYYADSVNGRFTISRDNAKNTVYLQMNSLKPEDTAVYYCAAYYFNPGMDYWGQGTQVTVSS | high polyreactivity
QVQLVESGGGLVQAGGSLRLSCAASGRTFPVYAMGWYRQAPGQERELVAAINTSGTSTYYADSVKGRFTISRDNAKNTVYLQMNSLKPEDTAVYYCATRYRYTYYWGQGTQVTVSS | high polyreactivity
QVQLVESGGGLVQAGGSLRLSCAASGRTFPWYAMGWYRQAPGKERELVAAISWTGGSTYYADSVKGRFTISRDNAKNTVYLQMNSLKPEDTAVYYCAASPWYLKYEYWGQGTQVTVSS | low polyreactivity
QVQLVESGGGLVQAGGSLRLSCAASGRTFPYNAMGWYRQATGKERELVATINTSGASTSYADSVKRRFTISRDNEKNTVYLQMNSLKPEVTAVYYCNRDRRYYHRFDYWGQGTQVTVSS | low polyreactivity
QVQLVESGGGLVQAGGSLRLSCAASGRTFPYYAMGLYRQAPGKERELVATITRGGSTYYADSVKGRFTISRDNAKNTVYLQMNSLKPEDTAVYYCAVDAYYEMDYWGQGTQLTVSS | low polyreactivity
QVQLVESGGGLVQAGGSLRLSCAASGRTFPYYAMGWYRQAPGKERELVAAISSSGGGTYYADSVKGRFTISRDNAKNTVYLQMNSLKPEDTAVYYCNAVSYYQDSFYYWGQGTQVTVSS | high polyreactivity
QVQLVESGGGLVQAGGSLRLSCAASGRTFPYYAMGWYRQAPGKERELVAAISSSGGSTYYADSVKGRFTISRDNAKNTVYLQMNSLKPEDTAVYYCAATRGWLHSFARDDHDYWGQGTQVTVSS | high polyreactivity
QVQLVESGGGLVQAGGSLRLSCAASGRTFPYYAMGWYRQAPGKERELVAAITGSGGRTYYADSVKGRFTISRDNAKNTVYLQMNRLKPEDTAVYYCATDRGYYTWRYGRNDYWGQGTLVTVSS | high polyreactivity
QVQLVESGGGLVQAGGSLRLSCAASGRTFPYYAMGWYRQATGKERELVAAIRSSGDRTYYADSVKGRFTISRDNAKNTVYLQMNSLKPEDTAVYYCNKVFLRSRRYYWGQGTQVTVSS | high polyreactivity

Sequence | polyreactivity (PSR sort gate)
QVQLVESGGGLVQAGGSLRLSCAASGRTFPYYVMGWNRQAPRKERELVATISSSGRTYYADSVKGRFTISRDNAKNTVYLQMNSLNPEDTSVYYCAARFRWNQNYHFYYWGQGTQVTVSS | high polyreactivity
QVQLVESGGGLVQAGGSLRLSCAASGRTFQANAMGWYRQAPGTERELVAAITGRGGTTYYADSVKGRFTISRDTAKNTVYVQMYSLKPEDTAVYYCALALSGYGFWGYDYWGLGTQVTVSS | low polyreactivity
QVQLVESGGGLVQAGGSLRLSCAASGRTFQEYAMGWYRQAPGKERELVADISDGGSTNYADSVKGRFTISRDNAKNTVYLQMNSLKPEDTAVYYCAADQYHGVGINFRSDYDYWGQGTQVTVSS | low polyreactivity
QVQLVESGGGLVQAGGSLRLSCAASGRTFQFYAMGWYRPAPGKERELVAAITYSGDSTYYADSVKGRFTISRDNAKNTVYLQMNSLKPEDTAVYYCAAGVWFYWYEYDYWGQGTQVTVSS | high polyreactivity
QVQLVESGGGLVQAGGSLRLSCAASGRTFQINAMGWYRQAPGKERELVAAITWSGGSTYYADSVKRRFTISPDNAKNPVYLQMNSLKPADTALYYCNTRYRAYATLNLIAGYNSWGQGTQVTVSS | low polyreactivity
QVQLVESGGGLVQAGGSLRLSCAASGRTFQLNAMGCYRQAPGKERELVAAISTRGGSTYYADSVKGRFTISRDNAKNTVYLQMNSLKPEDTAVYYCAKDPSFTRGYKDGGGYDYWGQGTQVTVSS | high polyreactivity
QVQLVESGGGLVQAGGSLRLSCAASGRTFQLNAMGWYRQAPGKEREFVATISTGGGGTFYADSVKGRFTISRDNAKNTVYLQMNSLKPEDTAVYYCNAGGETYIFRDLRHDYWGQGTQVTVSS | low polyreactivity
QVQLVESGGGLVQAGGSLRLSCAASGRTFQLYAMGWYRQAPGKERELVAAITSGGNTYYADSVKGRFTISRDNAKNTVYLQMNSLKPVDTAVYYCFLYYSRSMGYWGQGTQVTVSS | high polyreactivity
QVQLVESGGGLVQAGGSLRLSCAASGRTFQQNAMGWYRQAPGKERELVATIRNGGNTNYADSVKGRFTISRDNAKNTVYLQLNSLKPEDTAVYYSAARVYTHGLWGYNYWGQGTQVTVSS | high polyreactivity
QVQLVESGGGLVQAGGSLRLSCAASGRTFQSNAMGWYRQAPGNERELVAAISRRGGSTYYADSVKGRFTISRDNEKNTVYLQMNCLKPEDTAVYYCNRDAKAGDWGQGTQVTVSS | high polyreactivity
QVQLVESGGGLVQAGGSLRLSCAASGRTFQSYAMGWYRQAPGKERELVASITSGASTNYADSVKGRFTISRDNAKNTVYLQMNSLKPEDTAVYYCARRIGHGSRPYWLETWRYPYDYWGQGTQVTVSS | low polyreactivity
QVQLVESGGGLVQAGGSLRLSCAASGRTFQTYAMGWYRQAPGKERELVAAISSDGSTYYADSVKGRFTISRDNAKNTVYLQMNSLKPEDTAVYYCNTDIGDKYYYHVRVDYEYWGQGTQVTLSS | low polyreactivity
QVQLVESGGGLVQAGGSLRLSCAASGRTFQWNGMGWYRQAPGKERELVDTIRRGGSTNYADSVKGRFTISRDNAKNTVDLQMNSLKPEDTAVYYCAADRRYPGGWGFEYNYWGQGTQVTVSS | low polyreactivity
QVQLVESGGGLVQAGGSLRLSCAASGRTFQYYAMGWNRQAPGKERELVAAISQDGGSTYYADSVKGRFTISRDNAKHSVYLQMNSLKPEDTAVYYCDAEVWRSYGYWGQGTQVTVSS | low polyreactivity
QVQLVESGGGLVQAGGSLRLSCAASGRTFQYYAMGWYRPAPGKERELVAALSSRGGSTYYADSVKGRFTISRDNAKNTVSLQMNSLKPEDTAVYYCAAYVLPRQRVRSDYWGQGTQVTVTS | high polyreactivity
QVQLVESGGGLVQAGGSLRLSCAASGRTFQYYVMGWYRQAPGKERELVAAITSAGSTNYADSVKGRFTISRDNAKNTVYLQMNSLKPEDTAVYYCNADLWVNLHNDDDYWGQGTQVTVSS | low polyreactivity
QVQLVESGGGLVQAGGSLRLSCAASGRTFRANAMGWSRQAPGKERELVAAITWDGGSTYYADSVKGRFTISRDNAKNTVYLQMNSLKPEDTAVYYCNTYPYLWGQGTQVTVSS | low polyreactivity
QVQLVESGGGLVQAGGSLRLSCAASGRTFRANDMGWYRQAPGKERELVAAISQSGGSTYYADSVKGRFTISRDNAKNTVYFQMNSLKPEDTAVYDCNALGRISNHTLYDYWGQGTQVTVSS | low polyreactivity
QVQLVESGGGLVQAGGSLRLSCAASGRTFRANVMGWYRQAPGKERELVAAISKSGGRTYYADSVKGRFTISRDNAKNTVYLQMNSLKPEDTAVYYCAADIPSYRGYGYDYWGQGTQVTVSS | high polyreactivity
QVQLVESGGGLVQAGGSLRLSCAASGRTFRAYALGWYRQAPGKERELVARISWSGGNTYNADSVKGRFTISRDHAKNTVYLQMNSLKPEDTAVYYCAKTYYPYPAQIYTGYSWGQGTQVTVSS | low polyreactivity
QVQLVESGGGLVQAGGSLRLSCAASGRTFRAYAMGGYRQAPGKERELVAAITSGGSTYYADSVKGRFTISRDNAKNTVYLQMNSLKPEDTAVYYCNRRGWSRTHQYDYWGQGTQVTESS | high polyreactivity
